According to paper PMC7196805:

Biological target: T1, JUNO (mouse (endogenous in mouse oocytes)) (UniProt Q9EQF4)
T1 sequence: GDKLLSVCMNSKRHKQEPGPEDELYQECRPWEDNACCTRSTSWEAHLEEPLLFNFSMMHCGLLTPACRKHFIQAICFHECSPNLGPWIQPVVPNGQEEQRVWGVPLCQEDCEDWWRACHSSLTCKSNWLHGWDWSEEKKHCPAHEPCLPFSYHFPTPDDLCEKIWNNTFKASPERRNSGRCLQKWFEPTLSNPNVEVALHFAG

B1: IZUMO1 (natural protein)
chain: CIKCDQFVTDALKTFENTYLNDHLPHDIHKNVMRMVNHEVSSFGVVTSAEDSYLGAVDENTLEQATWSFLKDLKRITDSDLKGELFIKELLWMLRHQKDIFNNLARQFQKEVLCPNKCGVMSQTLIWCLKCEKQLHICRKSLDCGERHIEVHRSEDLVLDCLLSWHRASKGLTDYSFYRVWENSSETLIAKGKEPYLTKSMVGPEDAGNYRCVLDTINQGHATVIRYDVTVLPPKHSEENQPPNIITQEEHETPVHVTPQTPPGQEPESELYPELHPELYPELIPTVAQNPEKKMKTRLLILLTLGFVVLVASIIISVLHFRKVSAKLKNASDEVKPTASGSKSDQSLSQQMGLKKASQADFNSDYSGDKSEATEN
In the case of B1, the cell-oocyte binding assay: IZUMO1-expressing cultured cells bound per ZP-free oocyte (FIMP-expressing cells could not bind) (cells per oocyte) is reported as 4, the cell-oocyte binding assay: transfected HEK293T cells coexpressing IZUMO1 and FIMP, bound per oocyte (coexpression of FIMP did not enhance the binding) (cells per oocyte) is reported as 4.1 and the cell-oocyte binding assay: transfected HEK293T cells expressing IZUMO1 alone, bound per oocyte (cells per oocyte) is reported as 4.5.
